Data as given in IntAct's records for PubMed 14532120.

B1: Interferon alpha/beta receptor 1 (Homo sapiens), P17181 (parent)
chain: MMVVLLGATTLVLVAVAPWVLSAAAGGKNLKSPQKVEVDIIDDNFILRWNRSDESVGNVTFSFDYQKTGMDNWIKLSGCQNITSTKCNFSSLKLNVYEEIKLRIRAEKENTSSWYEVDSFTPFRKAQIGPPEVHLEAEDKAIVIHISPGTKDSVMWALDGLSFTYSLVIWKNSSGVEERIENIYSRHKIYKLSPETTYCLKVKAALLTSWKIGVYSPVHCIKTTVENELPPPENIEVSVQNQNYVLKWDYTYANMTFQVQWLHAFLKRNPGNHLYKWKQIPDCENVKTTQCVFPQNVFQKGIYLLRVQASDGNNTSFWSEEIKFDTEIQAFLLPPVFNIRSLSDSFHIYIGAPKQSGNTPVIQDYPLIYEIIFWENTSNAERKIIEKKTDVTVPNLKPLTVYCVKARAHTMDEKLNKSSVFSDAVCEKTKPGNTSKIWLIVGICIALFALPFVIYAAKVFLRCINYVFFPSLKPSSSIDEYFSEQPLKNLLLSTSEEQIEKCFIIENISTIATVEETNQTDEDHKKYSSQTSQDSGNYSNEDESESKTSEELQQDFV
B2: Interferon alpha/beta receptor 1 (Mus musculus), P33896 (parent)
chain: MLAVVGAAALVLVAGAPWVLPSAAGGENLKPPENIDVYIIDDNYTLKWSSHGESMGSVTFSAEYRTKDEAKWLKVPECQHTTTTKCEFSLLDTNVYIKTQFRVRAEEGNSTSSWNEVDPFIPFYTAHMSPPEVRLEAEDKAILVHISPPGQDGNMWALEKPSFSYTIRIWQKSSSDKKTINSTYYVEKIPELLPETTYCLEVKAIHPSLKKHSNYSTVQCISTTVANKMPVPGNLQVDAQGKSYVLKWDYIASADVLFRAQWLPGYSKSSSGSRSDKWKPIPTCANVQTTHCVFSQDTVYTGTFFLHVQASEGNHTSFWSEEKFIDSQKHILPPPPVITVTAMSDTLLVYVNCQDSTCDGLNYEIIFWENTSNTKISMEKDGPEFTLKNLQPLTVYCVQARVLFRALLNKTSNFSEKLCEKTRPGSFSTIWIITGLGVVFFSVMVLYALRSVWKYLCHVCFPPLKPPRSIDEFFSEPPSKNLVLLTAEEHTERCFIIENTDTVAVEVKHAPEEDLRKYSSQTSQDSGNYSNEEEESVGTESGQAVLSKAPCGGPCSVPSPPGTLEDGTCFLGNEKYLQSPALRTEPALLC

Variants of: B1
Conditions: with fbw1b_human FBXW11, Q9UKB1
Chain of fbw1b_human FBXW11, Q9UKB1 (Q9UKB1 whole entry): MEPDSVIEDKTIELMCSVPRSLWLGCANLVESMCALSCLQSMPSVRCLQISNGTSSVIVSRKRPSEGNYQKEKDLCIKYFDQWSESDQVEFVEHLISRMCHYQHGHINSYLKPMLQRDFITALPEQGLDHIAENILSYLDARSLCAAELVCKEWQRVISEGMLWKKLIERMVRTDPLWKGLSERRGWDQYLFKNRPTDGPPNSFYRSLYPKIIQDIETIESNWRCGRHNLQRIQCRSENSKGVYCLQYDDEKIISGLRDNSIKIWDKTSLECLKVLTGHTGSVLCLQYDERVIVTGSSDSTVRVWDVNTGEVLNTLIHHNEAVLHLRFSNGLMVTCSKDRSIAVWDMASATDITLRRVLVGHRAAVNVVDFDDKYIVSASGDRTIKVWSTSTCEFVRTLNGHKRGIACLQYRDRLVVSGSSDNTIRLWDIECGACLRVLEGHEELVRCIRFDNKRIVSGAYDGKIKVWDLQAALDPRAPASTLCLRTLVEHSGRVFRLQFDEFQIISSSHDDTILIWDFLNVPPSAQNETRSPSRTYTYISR

| Variant | effect of a mutation on the interaction |
| --- | --- |
| S535A | disrupting interaction |

Variants of: B1
Conditions: with fbw1b_human FBXW11, Q9UKB1
Remark: another data set of the same source

| Variant | effect of a mutation on the interaction |
| --- | --- |
| S535A | decreasing interaction |

Variants of: B2
Conditions: with fbw1b_human FBXW11, Q9UKB1

| Variant | effect of a mutation on the interaction |
| --- | --- |
| S526A | disrupting interaction |
